Starred links: 1 amine or outer side, 2 acyl side, 3 side chain; linkers in the order of their positions; H or OH if unused. Non-standard residues stand in square brackets, D forms with d. Groups on a side chain read outwards from the residue. No end group written: not given here. *: point of attachment. C20 diacid = O=C(O)CCCCCCCCCCCCCCCCCCC(=O)*; γGlu = O=C(O)[C@H](CCC(=O)[*:2])N[*:1]; NMeY = CN[C@@H](Cc1ccc(O)cc1)C(=O)O
Key:
[1] = molecular target: T1, NPY2R; experiment: cell-based or functional assay
T1 sequence (P49146 1-381, species assumed, looked up): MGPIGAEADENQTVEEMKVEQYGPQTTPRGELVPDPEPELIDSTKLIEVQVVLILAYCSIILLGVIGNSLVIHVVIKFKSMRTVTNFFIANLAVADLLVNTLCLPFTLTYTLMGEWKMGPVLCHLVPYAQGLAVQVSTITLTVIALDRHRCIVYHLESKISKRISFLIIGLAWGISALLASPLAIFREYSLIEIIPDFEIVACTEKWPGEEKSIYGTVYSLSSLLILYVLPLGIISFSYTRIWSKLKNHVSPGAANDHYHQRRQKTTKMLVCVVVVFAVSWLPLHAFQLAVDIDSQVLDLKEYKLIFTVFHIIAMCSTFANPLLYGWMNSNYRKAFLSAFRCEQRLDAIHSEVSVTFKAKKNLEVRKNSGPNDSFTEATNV

[2] = molecular target: T2, NPY5R; experiment: cell-based or functional assay
T2 sequence (Q15761 1-445, species assumed, looked up): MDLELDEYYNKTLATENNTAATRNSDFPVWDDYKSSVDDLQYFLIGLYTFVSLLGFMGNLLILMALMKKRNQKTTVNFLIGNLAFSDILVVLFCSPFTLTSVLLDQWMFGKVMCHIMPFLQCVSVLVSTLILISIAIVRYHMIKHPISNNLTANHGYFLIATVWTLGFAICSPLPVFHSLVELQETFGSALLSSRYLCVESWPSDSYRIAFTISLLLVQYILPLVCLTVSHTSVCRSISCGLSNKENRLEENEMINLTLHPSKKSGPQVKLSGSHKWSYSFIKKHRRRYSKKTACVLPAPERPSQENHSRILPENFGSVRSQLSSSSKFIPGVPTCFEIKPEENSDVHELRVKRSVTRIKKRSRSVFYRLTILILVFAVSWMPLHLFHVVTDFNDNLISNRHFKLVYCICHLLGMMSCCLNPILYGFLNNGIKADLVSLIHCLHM

Binder	NPY2R pEC50 [1]	NPY5R pEC50 [2]
PKPEKPGK([γGlu-γGlu-C20 diacid])DASPEEWNRYYKDLRHYLNWLTRQRF-NH2 (N-terminus assumed; SMILES CC(C)C[C@H](NC(=O)[C@H](CC(=O)O)NC(=O)[C@H](CCCCN)NC(=O)[C@H](Cc1ccc(O)cc1)NC(=O)[C@H](Cc1ccc(O)cc1)NC(=O)[C@H](CCCNC(=N)N)NC(=O)[C@H](CC(N)=O)NC(=O)[C@H](Cc1c[nH]c2ccccc12)NC(=O)[C@H](CCC(=O)O)NC(=O)[C@H](CCC(=O)O)NC(=O)[C@@H]1CCCN1C(=O)[C@H](CO)NC(=O)[C@H](C)NC(=O)[C@H](CC(=O)O)NC(=O)[C@H](CCCCNC(=O)CC[C@H](NC(=O)CC[C@H](NC(=O)CCCCCCCCCCCCCCCCCCC(=O)O)C(=O)O)C(=O)O)NC(=O)CNC(=O)[C@@H]1CCCN1C(=O)[C@H](CCCCN)NC(=O)[C@H](CCC(=O)O)NC(=O)[C@@H]1CCCN1C(=O)[C@H](CCCCN)NC(=O)[C@@H]1CCCN1)C(=O)N[C@@H](CCCNC(=N)N)C(=O)N[C@@H](Cc1c[nH]cn1)C(=O)N[C@@H](Cc1ccc(O)cc1)C(=O)N[C@@H](CC(C)C)C(=O)N[C@@H](CC(N)=O)C(=O)N[C@@H](Cc1c[nH]c2ccccc12)C(=O)N[C@@H](CC(C)C)C(=O)N[C@H](C(=O)N[C@@H](CCCNC(=N)N)C(=O)N[C@@H](CCC(N)=O)C(=O)N[C@@H](CCCNC(=N)N)C(=O)N[C@@H](Cc1ccccc1)C(N)=O)[C@@H](C)O) [Compound A19]	10.5 -Log(EC50, M)	8.7 -Log(EC50, M)
PKPEAPGK([γGlu-γGlu-C20 diacid])DASPKEWNRYYKDLRHYLNWLTRQRF-NH2 [Compound A20]	10.5 -Log(EC50, M)	8.7 -Log(EC50, M)
PKPEAPGK([γGlu-γGlu-C20 diacid])DASPEEWNRYY[dK]DLRHYLNWLTRQRF-NH2 [Compound A21]	10.4 -Log(EC50, M)	8.3 -Log(EC50, M)
PKPEAPGK([γGlu-γGlu-C20 diacid])DASPEEWDRYYKDLRHYLNWLTRQRF-NH2 [Compound A24]	10.5 -Log(EC50, M)	8.7 -Log(EC50, M)
PKPEAPGK([γGlu-γGlu-C20 diacid])DASPEEWNRYYADLRHYLNWLTRQRF-NH2 [Compound A13]	10.2 -Log(EC50, M)	8.7 -Log(EC50, M)
PKPEAPGK([γGlu-γGlu-C20 diacid])DASPEEWQRYYKDLRHYLNWLTRQRF-NH2 [Compound A23]	10.4 -Log(EC50, M)	8.6 -Log(EC50, M)
PKPEAPGKDASPK([γGlu-γGlu-C20 diacid])EWNRYYADARHYLNWLTRQR[NMeY]-NH2 (N-terminus assumed; SMILES CC(C)C[C@H](NC(=O)[C@H](Cc1ccc(O)cc1)NC(=O)[C@H](Cc1c[nH]cn1)NC(=O)[C@H](CCCNC(=N)N)NC(=O)[C@H](C)NC(=O)[C@H](CC(=O)O)NC(=O)[C@H](C)NC(=O)[C@H](Cc1ccc(O)cc1)NC(=O)[C@H](Cc1ccc(O)cc1)NC(=O)[C@H](CCCNC(=N)N)NC(=O)[C@H](CC(N)=O)NC(=O)[C@H](Cc1c[nH]c2ccccc12)NC(=O)[C@H](CCC(=O)O)NC(=O)[C@H](CCCCNC(=O)CC[C@H](NC(=O)CC[C@H](NC(=O)CCCCCCCCCCCCCCCCCCC(=O)O)C(=O)O)C(=O)O)NC(=O)[C@@H]1CCCN1C(=O)[C@H](CO)NC(=O)[C@H](C)NC(=O)[C@H](CC(=O)O)NC(=O)[C@H](CCCCN)NC(=O)CNC(=O)[C@@H]1CCCN1C(=O)[C@H](C)NC(=O)[C@H](CCC(=O)O)NC(=O)[C@@H]1CCCN1C(=O)[C@H](CCCCN)NC(=O)[C@@H]1CCCN1)C(=O)N[C@@H](CC(N)=O)C(=O)N[C@@H](Cc1c[nH]c2ccccc12)C(=O)N[C@@H](CC(C)C)C(=O)N[C@H](C(=O)N[C@@H](CCCNC(=N)N)C(=O)N[C@@H](CCC(N)=O)C(=O)N[C@@H](CCCNC(=N)N)C(=O)N(C)[C@@H](Cc1ccc(O)cc1)C(N)=O)[C@@H](C)O) [Compound A8]	9.6 -Log(EC50, M)	7.1 -Log(EC50, M)
PKPEAPK([γGlu-γGlu-C20 diacid])KDASPEEWNRYYADARHYLNWLTRQR[NMeY]-NH2 (N-terminus assumed; SMILES CC(C)C[C@H](NC(=O)[C@H](Cc1ccc(O)cc1)NC(=O)[C@H](Cc1c[nH]cn1)NC(=O)[C@H](CCCNC(=N)N)NC(=O)[C@H](C)NC(=O)[C@H](CC(=O)O)NC(=O)[C@H](C)NC(=O)[C@H](Cc1ccc(O)cc1)NC(=O)[C@H](Cc1ccc(O)cc1)NC(=O)[C@H](CCCNC(=N)N)NC(=O)[C@H](CC(N)=O)NC(=O)[C@H](Cc1c[nH]c2ccccc12)NC(=O)[C@H](CCC(=O)O)NC(=O)[C@H](CCC(=O)O)NC(=O)[C@@H]1CCCN1C(=O)[C@H](CO)NC(=O)[C@H](C)NC(=O)[C@H](CC(=O)O)NC(=O)[C@H](CCCCN)NC(=O)[C@H](CCCCNC(=O)CC[C@H](NC(=O)CC[C@H](NC(=O)CCCCCCCCCCCCCCCCCCC(=O)O)C(=O)O)C(=O)O)NC(=O)[C@@H]1CCCN1C(=O)[C@H](C)NC(=O)[C@H](CCC(=O)O)NC(=O)[C@@H]1CCCN1C(=O)[C@H](CCCCN)NC(=O)[C@@H]1CCCN1)C(=O)N[C@@H](CC(N)=O)C(=O)N[C@@H](Cc1c[nH]c2ccccc12)C(=O)N[C@@H](CC(C)C)C(=O)N[C@H](C(=O)N[C@@H](CCCNC(=N)N)C(=O)N[C@@H](CCC(N)=O)C(=O)N[C@@H](CCCNC(=N)N)C(=O)N(C)[C@@H](Cc1ccc(O)cc1)C(N)=O)[C@@H](C)O) [Compound A7]	9.7 -Log(EC50, M)	6 -Log(EC50, M)
PKPEAPGKDASPEEWK([γGlu-γGlu-C20 diacid])RYYADARHYLNWLTRQR[NMeY]-NH2 (N-terminus assumed; SMILES CC(C)C[C@H](NC(=O)[C@H](Cc1ccc(O)cc1)NC(=O)[C@H](Cc1c[nH]cn1)NC(=O)[C@H](CCCNC(=N)N)NC(=O)[C@H](C)NC(=O)[C@H](CC(=O)O)NC(=O)[C@H](C)NC(=O)[C@H](Cc1ccc(O)cc1)NC(=O)[C@H](Cc1ccc(O)cc1)NC(=O)[C@H](CCCNC(=N)N)NC(=O)[C@H](CCCCNC(=O)CC[C@H](NC(=O)CC[C@H](NC(=O)CCCCCCCCCCCCCCCCCCC(=O)O)C(=O)O)C(=O)O)NC(=O)[C@H](Cc1c[nH]c2ccccc12)NC(=O)[C@H](CCC(=O)O)NC(=O)[C@H](CCC(=O)O)NC(=O)[C@@H]1CCCN1C(=O)[C@H](CO)NC(=O)[C@H](C)NC(=O)[C@H](CC(=O)O)NC(=O)[C@H](CCCCN)NC(=O)CNC(=O)[C@@H]1CCCN1C(=O)[C@H](C)NC(=O)[C@H](CCC(=O)O)NC(=O)[C@@H]1CCCN1C(=O)[C@H](CCCCN)NC(=O)[C@@H]1CCCN1)C(=O)N[C@@H](CC(N)=O)C(=O)N[C@@H](Cc1c[nH]c2ccccc12)C(=O)N[C@@H](CC(C)C)C(=O)N[C@H](C(=O)N[C@@H](CCCNC(=N)N)C(=O)N[C@@H](CCC(N)=O)C(=O)N[C@@H](CCCNC(=N)N)C(=O)N(C)[C@@H](Cc1ccc(O)cc1)C(N)=O)[C@@H](C)O) [Compound A9]	9.6 -Log(EC50, M)	6 -Log(EC50, M)
